B1: SC17-2 (peptide)
chain: SFMPLSIPIMCKMLSKC
B2: SC17-2 (peptide)
chain: SFMPLSIPIMCKMLSKC
modifications: biotinylated EGFR

Experiments:
[1] = target: T1, EGFR (Homo sapiens, UniProt P00533); assay: SPR
[2] = target: T1, EGFR; assay: BLI

Binder | Kd [1] | Kd [2]
B1 | 148 nM | 
B2 |  | 229 nM
